The record followed here is patent publication US20230243070A1 (Molecular Partners, published 2023).

Test [1] addresses T1, NYESOpMHC on T2 cells pulsed with NY-ESO-1-9V (157-165) peptide.
T1 construct: whole, on cells; also called NY-ESO pulsed cells; pulsed T2 cells
The test is described as follows: flow cytometry on T2 cells pulsed with NY-ESO-1-9V (157-165) peptide. For orientation: In flow cytometry, cells or beads pass a laser one at a time.

For test [2], the target named is T1, NYESOpMHC on T2 cells pulsed with ….
The target of test [3] is T2, NYESOpMHC (HLA-A*0201:NYESO1-9V), biotinylated recombinant complex (human).
Test [4] has as its target T3, EBNApMHC (HLA-A*0201:EBNA-1), biotinylated recombinant complex (human; Epstein Barr virus).
Test [5] deals with T3, EBNApMHC (HLA-A*0201:EBNA-1), …. The test is described as follows: SPR (ProteOn), biotinylated EBNApMHC on the chip.
Test [6] has as its target T2, NYESOpMHC (HLA-A*0201:NYESO1-9V), …. The test is described as follows: SPR (ProteOn), biotinylated pMHC on NLC chip, PBS with Tween.
The target in test [7] is T4, NYESOAApMHC (HLA-A*0201:NYESO1-9VAA), biotinylated recombinant complex (human). The test is described as follows: SPR (ProteOn), biotinylated NYESOAApMHC on the chip.
Test [8] addresses T4, NYESOAApMHC (HLA-A*0201:NYESO1-9VAA), ….
The target in test [9] is T1, NYESOpMHC on T2 cells pulsed with …. This is another data set of the same source.
Test [10] concerns the target T4, NYESOAApMHC (HLA-A*0201:NYESO1-9VAA), …. The test is described as follows: SPR (ProteOn), biotinylated pMHC on NLC chip.
The target in test [11] is T3, EBNApMHC (HLA-A*0201:EBNA-1), …. The test is described as follows: SPR (ProteOn), biotinylated pMHC on NLC chip.

Like-named read-outs stand apart in the source and are kept apart here.

B1: BP DARPin® protein #21/#22 (designed binder)
chain: GSDLGKKLLQAARAGQLDEVRELLKAGADVNAKDLIGVTPLHLAAFSGHLEIVEVLLKASADVNAKDVSGRTPLHVAAKHGHLEIVEVLLKAGADVNAKDLIGFTPLHLAAQFGHLEIVEVLLKAGADVNAQDKSGKTPADLAARAGHQDIAEVLQKAAGSPTPTPTTPTPTPTTPTPTPTGSDLGKKLLQAARAGQLDEVRELLKAGADVNAKDAIGFTPLHLAAFSGHLEIVEVLLKAGADVNAKDVAGYTPLHVAALYGHLVIVEVLLKAGADVNAKDKAGETPLHLAAFAGHLEIVEVLLKAGADVNAQDKSGKTPADLAARAGHQDIAEVLQKAA
B1: it took 0.0014 µM to reach a half-maximal effect in [1] (EC50).

B2: DARPin® protein #21 (designed binder)
chain: MRGSHHHHHHGSDLGKKLLQAARAGQLDEVRELLKAGADVNAKDLIGVTPLHLAAFSGHLEIVEVLLKASADVNAKDVSGRTPLHVAAKHGHLEIVEVLLKAGADVNAKDLIGFTPLHLAAQFGHLEIVEVLLKAGADVNAQDKSGKTPADLAARAGHQDIAEVLQKAA
Turning to B2, in test [2], it took 0.0045 µM to reach a half-maximal effect (EC50). For the same molecule, in [3], the koff (commonly the rate constant with which the complex falls apart) is 0.000473 s⁻¹ and the kon – broadly, the rate constant with which the complex forms – turned out to be 549000 M⁻¹ s⁻¹. In addition, in test [4], the “KD (fit header over a trace without response)” value turned out to be 3050 µM, the “Ka (fit header over a trace without response)” value stood at 2.78e-08 M⁻¹ s⁻¹ and the “kd (fit header over a trace without response)” value came to 8.5e-11 s⁻¹. Further, in [5], the binding result is listed as “no binding”. Besides, the Kd (commonly the concentration at which binding is half-saturated) in [6] stood at 0.861 nM. Moreover, the binding result in test [7] was “no binding”. Moreover, in test [8], the “KD (fit header over a trace without response)” value worked out at 0.846 pM, the “Ka (fit header over a trace without response)” value was determined as 8.23e+06 M⁻¹ s⁻¹ and the “kd (fit header over a trace without response)” value is 6.97e-06 s⁻¹.

B3: DARPin® protein #22 (designed binder)
chain: MRGSHHHHHHGSDLGKKLLQAARAGQLDEVRELLKAGADVNAKDAIGFTPLHLAAFSGHLEIVEVLLKAGADVNAKDVAGYTPLHVAALYGHLVIVEVLLKAGADVNAKDKAGETPLHLAAFAGHLEIVEVLLKAGADVNAQDKSGKTPADLAARAGHQDIAEVLQKAA
For the molecule B3, in test [2], a half-maximal response (EC50) required 0.0037 µM. In addition, the EC50 (read off the curve) (as a rule, the concentration needed to bring the measured effect to its halfway point) in test [9] was about 0.003 µM. The binding result in test [10] is listed as “no binding”; in [11], “no binding (tested: 3.7 nM to 300 nM, or 250 nM single trace)”. For the same molecule, in test [6], the Kd stood at 0.0685 nM.
